Measured values reported in article PMC3089477.
Numbering of substitutions follows the chain as printed.

T1: BcnI wt (UniProt Q8RNV8 1-238)
T1 sequence: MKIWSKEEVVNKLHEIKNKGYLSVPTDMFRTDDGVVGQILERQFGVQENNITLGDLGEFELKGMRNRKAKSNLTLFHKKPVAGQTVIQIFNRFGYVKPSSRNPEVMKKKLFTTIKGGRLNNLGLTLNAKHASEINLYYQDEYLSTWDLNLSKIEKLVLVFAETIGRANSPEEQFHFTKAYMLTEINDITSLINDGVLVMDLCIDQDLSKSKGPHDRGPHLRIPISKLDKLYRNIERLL

T2: BcnI H219Q (UniProt Q8RNV8 1-238, H219Q)
T2 sequence: T1 sequence with H219Q

T3: BcnI H219N (UniProt Q8RNV8 1-238, H219N)
T3 sequence: T1 sequence with H219N

T4: BcnI H77N+H219N (UniProt Q8RNV8 1-238, H77N;H219N)
T4 sequence: T1 sequence with H77N, H219N

T5: BcnI H77N (UniProt Q8RNV8 1-238, H77N)
T5 sequence: T1 sequence with H77N

T6: BcnI H77A+H219N (UniProt Q8RNV8 1-238, H77A;H219N)
T6 sequence: T1 sequence with H77A, H219N

T7: BcnI H77A (UniProt Q8RNV8 1-238, H77A)
T7 sequence: T1 sequence with H77A

B1: CG oligoduplex (cognate) (dsDNA)
DNA 1: CGCACGACTTCCCGGAAGAGCACGC
DNA 2: GTTGCGTGCTCTTCCGGGAAGTCGTGCG
B2: TA oligoduplex (miscognate) (dsDNA)
DNA 1: CGCACGACTTCCTGGAAGAGCACGC
DNA 2: GTTGCGTGCTCTTCCAGGAAGTCGTGCG

Columns and labels:
Test in all cases: EMSA
BcnI wt = biological target: T1, BcnI wt
BcnI H219Q = biological target: T2, BcnI H219Q
BcnI H219N = biological target: T3, BcnI H219N
BcnI H77N+H219N = biological target: T4, BcnI H77N+H219N
BcnI H77N = biological target: T5, BcnI H77N
BcnI H77A+H219N = biological target: T6, BcnI H77A+H219N
BcnI H77A = biological target: T7, BcnI H77A

Binder | Kd (BcnI wt) [nM] | Kd (BcnI H219Q) [nM] | Kd (BcnI H219N) [nM] | Kd (BcnI H77N+H219N) [nM] | Kd (BcnI H77N) [nM] | Kd (BcnI H77A+H219N) [nM] | Kd (BcnI H77A) [nM]
B1 | 0.5 | 0.6 | 0.4 | 20 | 0.3 | 0.5 | 0.25
B2 | – | – | – | – | – | – | 25
